Experimental data from PMC6987093, “Polymerase independent repression of FoxO1 transcription by sequence-specific PARP1 binding to FoxO1 promoter”.

B1: FoxO1-R-B-biotin (dsDNA)
DNA 1: AATGATACGGCGACCACCGAGGATCCTCTTGTGGTCTCTTCACGTTTACGAATTCTCGTATGCCGTCTTCTGCTTG
DNA 2: CAAGCAGAAGACGGCATACGAGAATTCGTAAACGTGAAGAGACCACAAGAGGATCCTCGGTGGTCGCCGTATCATT
B2: FoxO1-R-B (free competitor) (dsDNA)
DNA 1: B1 DNA 1
DNA 2: B1 DNA 2
B3: FoxO1-L-B-biotin (dsDNA)
DNA 1: AATGATACGGCGACCACCGAGGATCCTCACTGTATTCTTGAATTCTCGTATGCCGTCTTCGCTTG
DNA 2: CAAGCGAAGACGGCATACGAGAATTCAAGAATACAGTGAGGATCCTCGGTGGTCGCCGTATCATT

Columns and labels:
[1] = molecular target: T1, PARP1 (UniProt P09874 1-1014); test: pull-down (FREP); EcoRI and BamHI release; EMSA: 0, 2, 5 or 10 ug PARP1 pre-incubated 30 min with 50 ng DNA probe (Thermo EMSA kit), nondenaturing PAGE; buffer, salt, pH and temperature not given in the; settings: label: 5' biotin
T1 sequence (P09874 whole entry): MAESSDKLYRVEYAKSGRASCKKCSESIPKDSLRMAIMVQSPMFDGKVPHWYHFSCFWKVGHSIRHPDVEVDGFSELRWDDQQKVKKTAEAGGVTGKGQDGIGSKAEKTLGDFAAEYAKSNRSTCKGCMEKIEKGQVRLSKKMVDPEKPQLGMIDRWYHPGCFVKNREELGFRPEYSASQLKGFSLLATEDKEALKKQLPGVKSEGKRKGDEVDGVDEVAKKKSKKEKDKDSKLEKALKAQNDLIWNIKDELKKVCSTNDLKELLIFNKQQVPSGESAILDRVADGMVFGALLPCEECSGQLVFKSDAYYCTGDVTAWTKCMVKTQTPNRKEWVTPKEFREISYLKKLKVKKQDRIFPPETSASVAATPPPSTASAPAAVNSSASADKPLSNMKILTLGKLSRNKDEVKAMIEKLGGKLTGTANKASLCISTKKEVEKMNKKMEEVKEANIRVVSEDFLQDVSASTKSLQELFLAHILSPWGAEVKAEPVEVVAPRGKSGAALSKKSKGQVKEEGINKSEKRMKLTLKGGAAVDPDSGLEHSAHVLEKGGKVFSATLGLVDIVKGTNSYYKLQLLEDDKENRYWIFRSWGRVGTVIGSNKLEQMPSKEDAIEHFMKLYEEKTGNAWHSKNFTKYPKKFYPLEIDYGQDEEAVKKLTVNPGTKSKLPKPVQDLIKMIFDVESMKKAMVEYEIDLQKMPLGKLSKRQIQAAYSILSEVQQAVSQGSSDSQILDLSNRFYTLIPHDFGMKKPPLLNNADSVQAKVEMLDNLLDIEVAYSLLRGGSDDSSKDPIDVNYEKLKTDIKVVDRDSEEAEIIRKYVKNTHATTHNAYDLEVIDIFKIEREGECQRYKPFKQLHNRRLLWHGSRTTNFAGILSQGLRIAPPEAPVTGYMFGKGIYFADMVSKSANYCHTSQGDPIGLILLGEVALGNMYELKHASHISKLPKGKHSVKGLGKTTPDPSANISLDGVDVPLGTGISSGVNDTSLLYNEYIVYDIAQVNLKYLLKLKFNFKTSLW

[2] = molecular target: T1, PARP1; test: competition; 40-fold excess over FoxO1-R-B-biotin in FREP; EMSA: 0, 2, 5 or 10 ug PARP1 pre-incubated 30 min with 50 ng DNA probe (Thermo EMSA kit), nondenaturing PAGE; buffer, salt, pH and temperature not given in the

Row | Binder | binding result [1] | binding result [2]
1 | B1 | binds | 
2 | B2 |  | binds
3 | B3 | binds | 
